From US20250304644A1, “PEPTIDES TRIPLE AGONISTS OF GIP, GLP-1 AND GLP-2” (BAINAN BIOTECH APS, priority 2021, published 2025)
*1 amine or outer side, *2 acyl side, *3 side chain or, on linkers, in order; H or OH if unused. Where no end group is shown, it is not given here. Side-chain parts run from the residue outwards. [ ]: non-standard residue; d: D form. The star is where a group is joined. C18 diacid = O=C(O)CCCCCCCCCCCCCCCCC(=O)*; γGlu = O=C(O)[C@H](CCC(=O)[*:2])N[*:1]; AEEA = NCCOCCOCC(=O)O; Aib = CC(C)(N)C(=O)O

B1: Compound 18 (peptide)
peptide: HADGTFTSDYSTILDNLAAK([AEEA-AEEA-γGlu-C18 diacid])DFINWLIQTKGKK-OH
modifications: N-terminus assumed
SMILES: CC[C@H](C)[C@H](NC(=O)[C@H](Cc1ccccc1)NC(=O)[C@H](CC(=O)O)NC(=O)[C@H](CCCCNC(=O)COCCOCCNC(=O)COCCOCCNC(=O)CC[C@H](NC(=O)CCCCCCCCCCCCCCCCC(=O)O)C(=O)O)NC(=O)[C@H](C)NC(=O)[C@H](C)NC(=O)[C@H](CC(C)C)NC(=O)[C@H](CC(N)=O)NC(=O)[C@H](CC(=O)O)NC(=O)[C@H](CC(C)C)NC(=O)[C@@H](NC(=O)[C@@H](NC(=O)[C@H](CO)NC(=O)[C@H](Cc1ccc(O)cc1)NC(=O)[C@H](CC(=O)O)NC(=O)[C@H](CO)NC(=O)[C@@H](NC(=O)[C@H](Cc1ccccc1)NC(=O)[C@@H](NC(=O)CNC(=O)[C@H](CC(=O)O)NC(=O)[C@H](C)NC(=O)[C@@H](N)Cc1c[nH]cn1)[C@@H](C)O)[C@@H](C)O)[C@@H](C)O)[C@@H](C)CC)C(=O)N[C@@H](CC(N)=O)C(=O)N[C@@H](Cc1c[nH]c2ccccc12)C(=O)N[C@@H](CC(C)C)C(=O)N[C@H](C(=O)N[C@@H](CCC(N)=O)C(=O)N[C@H](C(=O)N[C@@H](CCCCN)C(=O)NCC(=O)N[C@@H](CCCCN)C(=O)N[C@@H](CCCCN)C(=O)O)[C@@H](C)O)[C@@H](C)CC
B2: Compound 27 (peptide)
peptide: HADGTFTSDYST[Aib]LDKLAARDFINWLIQTKGKKNDWKHNITQK([AEEA-AEEA-γGlu-C18 diacid])-OH
B3: Compound 19 (peptide)
peptide: HADGTFTSDYSTILDNLAARDFINWLIQTKGKK([γGlu-C18 diacid])-OH
modifications: N-terminus assumed
SMILES: CC[C@H](C)[C@H](NC(=O)[C@H](Cc1ccccc1)NC(=O)[C@H](CC(=O)O)NC(=O)[C@H](CCCNC(=N)N)NC(=O)[C@H](C)NC(=O)[C@H](C)NC(=O)[C@H](CC(C)C)NC(=O)[C@H](CC(N)=O)NC(=O)[C@H](CC(=O)O)NC(=O)[C@H](CC(C)C)NC(=O)[C@@H](NC(=O)[C@@H](NC(=O)[C@H](CO)NC(=O)[C@H](Cc1ccc(O)cc1)NC(=O)[C@H](CC(=O)O)NC(=O)[C@H](CO)NC(=O)[C@@H](NC(=O)[C@H](Cc1ccccc1)NC(=O)[C@@H](NC(=O)CNC(=O)[C@H](CC(=O)O)NC(=O)[C@H](C)NC(=O)[C@@H](N)Cc1c[nH]cn1)[C@@H](C)O)[C@@H](C)O)[C@@H](C)O)[C@@H](C)CC)C(=O)N[C@@H](CC(N)=O)C(=O)N[C@@H](Cc1c[nH]c2ccccc12)C(=O)N[C@@H](CC(C)C)C(=O)N[C@H](C(=O)N[C@@H](CCC(N)=O)C(=O)N[C@H](C(=O)N[C@@H](CCCCN)C(=O)NCC(=O)N[C@@H](CCCCN)C(=O)N[C@@H](CCCCNC(=O)CC[C@H](NC(=O)CCCCCCCCCCCCCCCCC(=O)O)C(=O)O)C(=O)O)[C@@H](C)O)[C@@H](C)CC
B4: Compound 24 (peptide)
peptide: HADGTFTSDYSTILDKLAARDFINWLIQTKGKK([AEEA-AEEA-γGlu-C18 diacid])NDWKHNITQ-OH
B5: Compound 23 (peptide)
peptide: HADGTFTSDYSTILDKK([AEEA-AEEA-γGlu-C18 diacid])AARDFINWLIQTKGKKNDWKHNITQ-OH
B6: Compound 25 (peptide)
peptide: HADGTFTSDYSTILDKLAARDFINWLIQTKGKKNDWK([AEEA-AEEA-γGlu-C18 diacid])HNITQ-OH
B7: Compound 26 (peptide)
peptide: HADGTFTSDYSTILDKLAARDFINWLIQTKGKKNDWKHNITQK([AEEA-AEEA-γGlu-C18 diacid])-OH
B8: Compound 1 (peptide)
peptide: HXDGTFISDYSTILDNLAARDFINWLIQTKITK
modifications: Aib at position 2; K33 acylated with C10, K(C10); C-terminal amide (-NH2)

target: T1, Human N-terminally SNAP-tagged GIPR (human, UniProt P48546 22-466, SNAP tag labeled with Tag-Lite SNAP-Lumi4-Tb); test: cell-based or functional assay; conditions: not given
T1 sequence (looked up): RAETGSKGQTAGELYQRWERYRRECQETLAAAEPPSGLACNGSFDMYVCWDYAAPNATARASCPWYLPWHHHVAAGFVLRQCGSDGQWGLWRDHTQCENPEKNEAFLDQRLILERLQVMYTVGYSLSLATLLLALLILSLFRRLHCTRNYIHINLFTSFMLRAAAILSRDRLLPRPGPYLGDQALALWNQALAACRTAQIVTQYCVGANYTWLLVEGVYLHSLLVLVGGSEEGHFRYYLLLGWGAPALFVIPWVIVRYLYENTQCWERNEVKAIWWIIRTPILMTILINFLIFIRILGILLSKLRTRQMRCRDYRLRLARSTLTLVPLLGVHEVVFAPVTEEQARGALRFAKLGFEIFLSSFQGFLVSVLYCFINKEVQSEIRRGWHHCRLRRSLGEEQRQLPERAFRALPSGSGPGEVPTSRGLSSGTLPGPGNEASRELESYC

Point of comparison: B1, “Absolute hGIPR internalization (AUC)” value 2.1 AUC. Against it:
- B2 — higher, 9 AUC
- B3 — higher, 8.9 AUC
- B4 — higher, 15 AUC
- B5 — lower, 1.2 AUC
- B6 — higher, 13.1 AUC
- B7 — higher, 16.4 AUC
- B8 — higher, 5.3 AUC

Point of comparison: B2, “Relative hGIPR internalization (%)” value 24%. Against it:
- B3 — the same, 24%
- B4 — higher, 41%
- B5 — lower, 3%
- B6 — higher, 35%
- B7 — higher, 44%

target: human GLP-1R (glucagon-like peptide-1 receptor) (human, UniProt P43220 24-463); test: cell-based or functional assay; conditions: not given

Point of comparison: B7, “EC50 (nM) GLP-1R” value 0.04 nM. Against it:
- B1 — 1.5-fold higher, 0.06 nM
- B2 — within 1.5-fold, 0.05 nM
- B3 — 1.5-fold higher, 0.06 nM
- B4 — within 1.5-fold, 0.05 nM
- B5 — within 1.5-fold, 0.05 nM
- B6 — within 1.5-fold, 0.05 nM

Point of comparison: B5, “Efficacy GLP-1R” value 105. Against it:
- B1 — higher, 112
- B2 — higher, 115
- B3 — higher, 106
- B4 — higher, 113
- B6 — higher, 116
- B7 — lower, 103

Point of comparison: B6, “logEC50 GLP-1R” value 10.3. Against it:
- B1 — within 0.2 log units, 10.2
- B2 — the same, 10.3
- B3 — within 0.2 log units, 10.2
- B4 — the same, 10.3
- B5 — the same, 10.3
- B7 — within 0.2 log units, 10.4

target: T2, human SNP-tagged GLP-2R (Homo sapiens, UniProt O95838); test: Receptor internalization assay, HEK293A cells expressing human SNAP-tagged GLP-2R; type: cell-based; conditions: AUC of sigmoid curves up to 1 μM; 60 minutes at 37° C.
T2 construct: expressed in transfected cells; host or cells: HEK293A
T2 sequence (O95838 1-553): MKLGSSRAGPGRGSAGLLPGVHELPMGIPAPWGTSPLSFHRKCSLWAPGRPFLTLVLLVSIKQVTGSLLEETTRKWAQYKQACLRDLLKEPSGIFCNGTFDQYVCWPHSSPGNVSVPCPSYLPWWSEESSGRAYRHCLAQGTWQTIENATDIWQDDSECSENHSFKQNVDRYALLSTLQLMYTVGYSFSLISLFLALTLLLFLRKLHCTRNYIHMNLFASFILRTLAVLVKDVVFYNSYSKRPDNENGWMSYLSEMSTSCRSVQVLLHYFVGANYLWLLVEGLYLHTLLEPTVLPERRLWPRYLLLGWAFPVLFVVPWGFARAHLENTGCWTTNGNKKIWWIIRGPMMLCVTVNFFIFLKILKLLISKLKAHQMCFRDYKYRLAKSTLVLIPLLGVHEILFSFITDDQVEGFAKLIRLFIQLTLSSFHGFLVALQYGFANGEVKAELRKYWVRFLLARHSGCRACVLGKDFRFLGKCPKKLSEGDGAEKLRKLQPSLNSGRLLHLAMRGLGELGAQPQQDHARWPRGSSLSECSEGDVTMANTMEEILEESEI

“hGLP-1: native human glucagon-like peptide-1, endogenous GLP-1R ligand; which form (1-37, 7-36, 7-37) not stated [reference compound]” was tested, and the “Absolute hGLP-2R internalization (AUC)” value was 48.6.

target: T3, human GIPR (glucose-dependent insulinotropic polypeptide receptor) (human, UniProt P48546 22-466); test: cell-based or functional assay; conditions: not given
T3 sequence (looked up): T1 sequence (looked up)

Point of comparison: B6, “Efficacy GIPR” value 107. Against it:
- B1 — lower, 82
- B2 — higher, 124
- B3 — lower, 92
- B4 — lower, 96
- B5 — lower, 82

Point of comparison: B6, “EC50 (nM) GIPR” value 0.398 nM. Against it:
- B2 — within 1.5-fold, 0.562 nM
- B4 — the same, 0.398 nM
- B5 — 18-fold higher, 7.08 nM

Point of comparison: B4, “pEC50 GIPR” value 9.4. Against it:
- B2 — within 0.2 log units, 9.3
- B3 — lower, 9.2
- B5 — lower, 8.2
- B6 — the same, 9.4

target: T4, human GLP-2R (glucagon-like peptide-2 receptor) (human, UniProt O95838 1-553); test: cell-based or functional assay; conditions: not given
T4 sequence (looked up): T2 sequence (O95838 1-553)

Point of comparison: B3, “EC50 (nM) GLP-2R” value 31.6 nM. Against it:
- B2 — 9.9-fold lower, 3.2 nM
- B5 — 9-fold lower, 3.5 nM
- B6 — 4-fold lower, 7.9 nM
- B7 — 5.6-fold lower, 5.6 nM

Point of comparison: B3, “Efficacy GLP-2R” value 94. Against it:
- B2 — lower, 85
- B5 — higher, 95
- B6 — higher, 117
- B7 — higher, 112

Point of comparison: B6, “logEC50 GLP-2R” value 8.1. Against it:
- B2 — higher, 8.5
- B3 — lower, 7.5
- B5 — higher, 8.5
- B7 — higher, 8.3
